Assay results: the DeepSol protein solubility set

experiment: soluble on expression in E. coli; label from the status in PepcDB or PDB records

Sequence | soluble on expression in E. coli
MPKEWLAEDLSEQYVADYKAFNFVDGEGVRCSLYLSGCPFHCPGCYNVAAQNFHYGQPYSQELEDQIIEDLGQDYVQGLTLLGGEPFLNTQVGIRICERIRSEFGNTKDIWSWSGYTWEELQQDSEDKLKMLSLIDILVDGRFLQDKMDLSLQFRGSSNQRIIDVPKSLTAGKVVIWDKLVKLEHHHHHH | soluble
GSSHHHHHHMLKIGSHVSMSGKKMLLAASEEAVSYGATTFMIYTGAPQNTRRKPIEELNIEAGRKHMEQNGIEEIIIHAPYIINVGNTTKPETFQLGVDFLRMEIERTSALGVAKQIVLHPGAHVGAGADAGIQQIIKGLNEVLTPDQTVNIALETMAGKGTECGRSFEEIAKIIDGVKYNEKLSVCFDTCHTHDAGYDIVNNFDGVLNEFDKIVGIDRLQVLHINDSKNVRGAGKDRHENIGFGHIGYKALHHIVHHPQLTHVPKILETPYVGEDKKDKKPPYKLEIEMLKNGTFDEGLLEKIKAQ | soluble
MKAVTYDTDSELAYIYVLPPKKNRNVRTEELRVNDCLLLDISQDGKIAGFECFGEAAHLCAPFAGKSRLYVKDSDGYHFRVCQHASVRSCYTVYRVTFCFSDGDYQEFAGFDLDGTMYHSAFLQRLTEKLEHHHHHH | not soluble
SLPSINALLQAEVLSRQITSPVSGINGDIRAKKIASIADVCESMKEQLLVLVEWAKYIPAFCELPLDDQVALLRAHAGEHLLLGATKRSMVFKDVLLLGNDYIVPRHCPELAEMSRVSIRILDELVLPFQELQIDDNEYAYLKAIIFFDPDAKGLSDPGKIKRLRSQVQVSLEDYINDRQYDSRGRFGELLLLLPTLQSITWQMIEQIQFIKLFGMAKIDNLLQEMLLGG | soluble
MTSSTGTRRLTAKGRATRDRIVAAAAQLMYERGVTGTSTEDILKAARVASPSQLYHYFGDKRGLVQAVIEHQTEQVLGFQKPLLSRLDSIEALEAWRDAVVEAQHARDCQGGCPLGSLASELSDLDPQARARLVAGYEQWGNAIREGLRSMRERGELDGGADPDRLALALLTALQGGLLMTQTRRDTIALEAVLNTMIDHIRFRTTP | soluble
MAGDSTDKAFQNFAYLLFLRNILTKSNFSETKNKPEAYNQFLFQKLKKILNLFQILQFILENIHCKPGDRIAILFAYSNDLDRNVVKNVWNTADFGFYSHFLVFANVRFDVRQEEEILFHYSYLNATSSVFSKLPDSSLGFGNNATGSDSLKTIDVGKFYSNNQVPVCGSIVLILSKRYPNELKILEVSRKVQEHHGIVHVISSVFPSGGTQSKALYKLTSRTNGICAFQEDSQFSEVSDFINISSKYYDGWHLLSHIVGSLPISGTPYPIYSVNPRVSGLGSLVLPSLSVPFSGRFYFVVTVQDHGPIDTFRSINLSWYNAKSRSSNHFLISNGQKYEINREEWFDLDPVIYNMTLNYSYLTFQDIQIRVYSSRPPEDWLPCCDSTN | not soluble
VADVVPLDHNNRILVSQGLKRMRSGKMRPGIRALFEVARRDWRKAQPFDMGFALGPRINAAGRLDDMSVGIACLLARDDSEAQELAAQLNNLNIERREIEQSMLQDALNDFPETLPSGQMTLVAYRDDFHQGVVGIV | not soluble
RTDTIMVLNVGNKDKKIKMVSFMRDTLVNIKGVSADNYSYDNKLNSAFNIGEQDNNQGAELMRQTLKRNFDIDIKYYVMVDFQTFAEAIDTLFPNGVEINAKFATVGGEAVDSVEVPDDLNMKDGVVPNQTISVGKQKMDGRTLLNYARFRKDDEGDFGRTKRQQQVMSAIMSQIKD | not soluble
MAGKLIANLIVMGSGIIGRAMLQAYRKALDNANKTGVAHETINNIRRASKTMTEQEARQILGVSEQSTWEEIAQRYDNLFERNAKSGSFYLQSKVHRAKECLENVYQKNKQDGTPP | soluble
